The record followed here is US20240076330A1.

One assay addresses IFNGR1 (human) (UniProt P15260). Description: cell-based or functional assay.
In assay [1] the target is IL-6 receptor (IL6R) (human) (UniProt P08887). In words: cell-based or functional assay.
Chain of UniProt P08887 (P08887 20-468): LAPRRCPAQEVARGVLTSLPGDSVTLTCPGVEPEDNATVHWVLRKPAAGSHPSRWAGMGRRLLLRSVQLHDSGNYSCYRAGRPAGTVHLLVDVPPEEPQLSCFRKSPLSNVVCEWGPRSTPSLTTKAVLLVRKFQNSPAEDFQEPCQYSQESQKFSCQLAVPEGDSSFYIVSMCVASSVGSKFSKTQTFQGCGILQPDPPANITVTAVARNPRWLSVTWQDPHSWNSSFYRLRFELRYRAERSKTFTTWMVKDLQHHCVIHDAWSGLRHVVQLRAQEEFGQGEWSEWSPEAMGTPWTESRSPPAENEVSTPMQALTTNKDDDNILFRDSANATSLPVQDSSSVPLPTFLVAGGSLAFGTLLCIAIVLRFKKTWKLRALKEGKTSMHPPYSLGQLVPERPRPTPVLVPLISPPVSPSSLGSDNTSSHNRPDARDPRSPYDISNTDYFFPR

Chain of UniProt P15260 (P15260 18-489): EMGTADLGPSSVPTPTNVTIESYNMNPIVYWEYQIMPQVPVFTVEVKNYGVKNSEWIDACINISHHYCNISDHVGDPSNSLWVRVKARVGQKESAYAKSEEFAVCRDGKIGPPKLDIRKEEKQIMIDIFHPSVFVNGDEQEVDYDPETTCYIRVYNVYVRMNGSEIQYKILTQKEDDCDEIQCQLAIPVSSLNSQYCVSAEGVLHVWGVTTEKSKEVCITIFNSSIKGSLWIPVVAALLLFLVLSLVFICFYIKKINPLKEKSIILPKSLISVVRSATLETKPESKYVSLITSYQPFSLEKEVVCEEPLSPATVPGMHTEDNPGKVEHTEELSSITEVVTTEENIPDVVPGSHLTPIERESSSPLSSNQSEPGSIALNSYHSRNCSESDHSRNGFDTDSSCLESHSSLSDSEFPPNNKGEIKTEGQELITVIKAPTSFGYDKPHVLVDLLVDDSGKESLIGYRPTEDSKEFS

“IFNγ (from UniProt P01579 24-166) (ligand)”: in the assay with IFNGR1 (human), the pSTAT1 levels after IFNγ in THP1-Cas9 cells with gRNAs targeting IFNGR1 (fold decrease) was 15 and the percent of cells with increased pSTAT1 after IFNγ, clusters with gRNAs targeting IFNGR1 came out at 25%.

In assay [1], “IL-6 (from UniProt P05231 30-212) (ligand)” had a pSTAT1 levels after IL-6 in THP1-Cas9 cells with gRNAs targeting IL6R (fold reduction) of 2 and a pSTAT3 levels after IL-6 in THP1-Cas9 cells with gRNAs targeting IL6R (fold reduction) of 2.
